Measured values as given in patent US20150322165A1 (SAMSUNG ELECTRONICS, published 2015).

B1: anti-c-Met/anti-EGFR/anti-HER3 multispecific antibody MEH3-01S (bispecific antibody, human IgG2, kappa)
heavy: EVQLVESGGGLVQPGGSLRLSCAASGFTFTDYYMSWVRQAPGKGLEWLGFIRNKANGYTTEYSASVKGRFTISRDNSKNTLYLQMNSLRAEDTAVYYCARDNWFAYWGQGTLVTVSSASTKGPSVFPLAPCSRSTSESTAALGCLVKDYFPEPVTVSWNSGALTSGVHTFPAVLQSSGLYSLSSVVTVPSSNFGTQTYTCNVDHKPSNTKVDKTVERKCCVECPPCPAPPVAGPSVFLFPPKPKDTLMISRTPEVTCVVVDVSHEDPEVQFNWYVDGVEVHNAKTKPREEQFNSTFRVVSVLTVVHQDWLNGKEYKCKVSNKGLPAPIEKTISKTKGQPREPQVYTLPPSREEMTKNQVSLTCLVKGFYPSDIAVEWESNGQPENNYKTTPPMLDSDGSFFLYSKLTVDKSRWQQGNVFSCSVMHEALHNHYTQKSLSLSPGKGGGGSGGGGSGGGGSEVQLVESGGGLVQPGGSLRLSCAASGFTLSGDWIHWVRQAPGKCLEWVGEISAAGGYTDYADSVKGRFTISADTSKNTAYLQMNSLRAEDTAVYYCARESRVSFEAAMDYWGQGTLVTVSSGGGGSGGGGSGGGGSDIQMTQSPSSLSASVGDRVTITCRASQNIATDVAWYQQKPGKAPKLLIYSASFLYSGVPSRFSGSGSGTDFTLTISSLQPEDFATYYCQQSEPEPYTFGCGTKVEIK
light: DIQMTQSPSSLSASVGDRVTITCKSSQSLLASGNQNNYLAWYQQKPGKAPKMLIIWASTRVSGVPSRFSGSGSGTDFTLTISSLQPEDFATYYCQQSYSRPYTFGQGTKVEIKRTVAAPSVFIFPPSDEQLKSGTASVVCLLNNFYPREAKVQWKVDNALQSGNSQESVTEQDSKDSTYSLSSTLTLSKADYEKHKVYACEVTHQGLSSPVTKSFNRGEC
notes: DL11f scFv fused to the C-terminus of the heavy chain (Fc) of the anti-c-Met IgG2 antibody SAIT301
B2: AbF46, a mouse antibody to c-Met (antibody, V domains shown)
VH: EVKLVESGGGLVQPGGSLRLSCATSGFTFTDYYMSWVRQPPGKALEWLGFIRNKANGYTTEYSASVKGRFTISRDNSQSILYLQMDTLRAEDSATYYCARDNWFAYWGQGTLVTVSA
VL: DILMTQSPSSLTVSAGEKVTMSCKSSQSLLASGNQNNYLAWHQQKPGRSPKMLIIWASTRVSGVPDRFIGSGSGTDFTLTINSVQAEDLAVYYCQQSYSAPLTFGAGTKLELK
notes: Tested as hybridoma culture supernatant in the selection ELISA; also called monoclonal antibody of hybridoma KCLRF-BP-00220

Experiments:
[1] = target: T1, HER3-Fc (#344-ER, R&D Systems) (UniProt P21860 20-643); experiment: SPR (Biacore T100), MEH3-01S captured by human Fab binder on CM5 chip, HER3-Fc injected
T1 construct: Bought reagent; not shown: Fc part of the bought fusion; not described
T1 sequence (P21860 20-643 limits assumed): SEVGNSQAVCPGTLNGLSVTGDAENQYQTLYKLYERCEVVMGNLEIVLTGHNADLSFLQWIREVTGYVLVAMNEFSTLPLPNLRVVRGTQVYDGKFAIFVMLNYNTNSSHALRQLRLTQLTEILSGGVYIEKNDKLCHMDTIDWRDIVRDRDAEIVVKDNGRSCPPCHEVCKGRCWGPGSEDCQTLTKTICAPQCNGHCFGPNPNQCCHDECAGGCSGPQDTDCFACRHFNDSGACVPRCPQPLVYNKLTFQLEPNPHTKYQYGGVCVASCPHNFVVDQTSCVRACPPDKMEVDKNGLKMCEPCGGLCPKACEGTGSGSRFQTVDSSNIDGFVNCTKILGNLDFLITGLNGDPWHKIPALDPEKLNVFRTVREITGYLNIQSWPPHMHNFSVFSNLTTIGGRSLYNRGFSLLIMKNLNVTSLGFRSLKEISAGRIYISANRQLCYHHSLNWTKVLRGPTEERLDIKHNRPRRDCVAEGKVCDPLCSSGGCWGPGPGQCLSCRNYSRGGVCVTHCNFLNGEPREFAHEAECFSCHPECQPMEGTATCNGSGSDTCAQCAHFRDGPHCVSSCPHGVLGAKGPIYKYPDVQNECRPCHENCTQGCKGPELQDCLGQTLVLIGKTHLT
Protocol: (§1) The affinity of the anti-c-Met/anti-EGFR/anti-HER3 multispecific antibody prepared in Example 2 to EGFR and HER3 was measured. A human Fab binder (GE Healthcare) was immobilized at the surface of a CM5 chip (#BR-1005-30, GE) according to the manufacturer's specifications. About 90 to 120 RU of the MEH3-01S was captured, and the EGFR-Fc(#344-ER, R&D Systems) or HER3-Fc(#344-ER, R&D Systems) was injected at various concentrations into the captured antibody. 10 mM Glycine-HCl (pH 1.5) solution was injected thereto to regenerate the surface.
(§2) To examine affinity of the antibody, the data obtained from this experiment was fitted using BIAevaluation software (GE Healthcare, Biacore T100 evaluation software).

[2] = target: T2, EGFR-Fc (#344-ER, R&D Systems) (UniProt P00533 25-645); experiment: SPR (Biacore T100), MEH3-01S captured by human Fab binder on CM5 chip, EGFR-Fc injected
T2 construct: Bought reagent; not shown: Fc part of the bought fusion; not described
Protocol: as §1, §2

[3] = target: T3, human c-Met/Fc fusion protein (R&D Systems) (human, UniProt P08581 25-932); experiment: ELISA, hybridoma culture on plate-bound human c-Met/Fc fusion protein
T3 construct: Bought reagent, coated on ELISA plates; also called human c-Met/Fc protein; not shown: Fc part of the bought fusion; not described
T3 sequence (P08581 25-932 limits assumed): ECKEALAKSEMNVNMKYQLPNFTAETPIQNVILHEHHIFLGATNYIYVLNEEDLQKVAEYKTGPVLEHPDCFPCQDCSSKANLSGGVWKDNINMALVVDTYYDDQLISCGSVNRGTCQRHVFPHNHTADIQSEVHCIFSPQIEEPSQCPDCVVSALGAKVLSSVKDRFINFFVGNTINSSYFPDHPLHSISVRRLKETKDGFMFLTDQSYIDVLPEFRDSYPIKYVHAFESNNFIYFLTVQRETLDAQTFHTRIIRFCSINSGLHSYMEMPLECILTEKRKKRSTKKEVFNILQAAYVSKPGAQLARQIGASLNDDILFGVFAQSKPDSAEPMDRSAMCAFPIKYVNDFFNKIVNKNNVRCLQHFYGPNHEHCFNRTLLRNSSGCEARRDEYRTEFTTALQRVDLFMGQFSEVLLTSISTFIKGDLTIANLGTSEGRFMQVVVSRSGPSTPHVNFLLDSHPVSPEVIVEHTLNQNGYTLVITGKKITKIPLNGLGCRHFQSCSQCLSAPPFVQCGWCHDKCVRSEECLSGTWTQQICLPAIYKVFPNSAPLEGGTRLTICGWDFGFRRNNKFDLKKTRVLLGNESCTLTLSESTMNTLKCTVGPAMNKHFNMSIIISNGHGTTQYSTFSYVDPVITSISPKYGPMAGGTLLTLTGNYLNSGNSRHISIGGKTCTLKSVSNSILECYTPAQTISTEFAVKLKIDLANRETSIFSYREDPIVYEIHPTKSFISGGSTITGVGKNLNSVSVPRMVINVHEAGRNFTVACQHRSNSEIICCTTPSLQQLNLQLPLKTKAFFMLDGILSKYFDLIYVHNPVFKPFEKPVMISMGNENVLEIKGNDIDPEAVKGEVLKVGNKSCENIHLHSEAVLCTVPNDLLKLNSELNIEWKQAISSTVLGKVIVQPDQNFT
Protocol: The hybridoma cell culture obtained in Reference Example 1.1.2 was added in an amount of 50 μL to each well of the plates and incubated for 1 hour. The cells remaining unreacted were washed out with a sufficient amount of Tris-buffered saline and Tween 20 (TBST). Goat anti-mouse IgG-horseradish peroxidase (HRP) was added to the plates and incubated for 1 hour at room temperature. The plates were washed with a sufficient amount of TBST, followed by reacting the peroxidase with a substrate (OPD). Absorbance at 450 nm was measured on an ELISA reader.

Row | Binder | Kd [1] [nM] | koff [1] [s⁻¹] | kon [1] [M⁻¹ s⁻¹] | Kd [2] [nM] | koff [2] [s⁻¹] | kon [2] [M⁻¹ s⁻¹] | binding result [3]
1 | B1 | < 0.01 | < 1.6e-05 | 3.4e+06 | 0.18 | 0.00011 | 1e+06 | 
2 | B2 |  |  |  |  |  |  | binds
